Data reported in EP4361176A1.

Key:
[1] = target: human FcγRIIa R extracellular domain (human) (UniProt P12318); assay: SPR; KD of G1d divided by KD of this antibody
[2] = target: human FcγRIIIa V extracellular domain (human) (UniProt P08637); assay: SPR; KD of G1d divided by KD of this antibody
[3] = target: human FcγRIIa R extracellular domain (human) (UniProt P12318); assay: SPR; KD for FcγRIIb divided by KD for this FcγR
[4] = target: human FcγRIIIa V extracellular domain (human) (UniProt P08637); assay: SPR; KD for FcγRIIb divided by KD for this FcγR
[5] = target: human FcγRIIa R extracellular domain (human) (UniProt P12318); assay: SPR (Biacore 8K+), captured antibody, 1:1 Langmuir model
[6] = target: human FcγRIIIa V extracellular domain (human) (UniProt P08637); assay: as above
[7] = target: human FcγRIIb extracellular domain with C-terminal His-tag (human) (UniProt P31994); assay: SPR; binding amount / that of MDX10D1H-G1m/MDX10D1L-k0MT
human FcγRIIb extracellular domain with C-terminal His-tag (human), sequence (P31994 43-217): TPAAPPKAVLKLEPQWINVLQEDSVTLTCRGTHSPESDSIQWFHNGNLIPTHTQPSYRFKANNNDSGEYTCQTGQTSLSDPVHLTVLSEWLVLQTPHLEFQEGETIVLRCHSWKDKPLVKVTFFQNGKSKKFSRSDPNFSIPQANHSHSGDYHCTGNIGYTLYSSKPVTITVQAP

[8] = target: human FcγRIIb extracellular domain with C-terminal His-tag (human) (UniProt P31994); assay: SPR (Biacore T200), FcγRIIb 1000 nM, amount bound per unit captured antibody

H240-GASDALIE/L73-k0 (antibody), sequence (heavy): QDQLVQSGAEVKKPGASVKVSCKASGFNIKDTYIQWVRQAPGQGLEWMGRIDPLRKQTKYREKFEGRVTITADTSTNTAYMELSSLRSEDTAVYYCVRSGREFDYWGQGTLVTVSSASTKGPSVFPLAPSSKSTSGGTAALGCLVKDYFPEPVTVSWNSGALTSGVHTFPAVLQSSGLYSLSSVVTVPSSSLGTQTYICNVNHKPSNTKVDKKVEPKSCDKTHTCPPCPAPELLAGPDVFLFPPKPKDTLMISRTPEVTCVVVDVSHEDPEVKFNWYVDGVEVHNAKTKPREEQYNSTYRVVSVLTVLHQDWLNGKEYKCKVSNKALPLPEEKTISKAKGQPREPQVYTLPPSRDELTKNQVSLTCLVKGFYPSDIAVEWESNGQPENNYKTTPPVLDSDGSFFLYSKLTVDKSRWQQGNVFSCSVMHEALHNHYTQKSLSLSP
H240-GASDALIE/L73-k0 (antibody), sequence (light): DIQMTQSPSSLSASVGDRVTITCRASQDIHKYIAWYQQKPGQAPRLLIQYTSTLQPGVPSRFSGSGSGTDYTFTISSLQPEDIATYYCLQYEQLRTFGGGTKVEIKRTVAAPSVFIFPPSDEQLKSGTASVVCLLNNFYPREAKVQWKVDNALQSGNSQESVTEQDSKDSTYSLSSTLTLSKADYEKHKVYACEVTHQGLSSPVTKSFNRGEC

Substance | Relative value to KD between G1d and hFcgRs [1] | Relative value to KD between G1d and hFcgRs [2] | A/I ratio (KD for FcγRIIb divided by KD for each FcyR) [3] | A/I ratio (KD for FcγRIIb divided by KD for each FcyR) [4] | Kd [5] [nM] | Kd [6] [nM] | Relative binding amount [7] | Binding amount [8]
H240-GASDALIE/L73-k0 (antibody) | 10.3 | 23.6 | 16.5 | 176 | 161 | 15.2 | – | –
MDX10D1H-GASDIE/MDX10D1L-k0MT (antibody) | – | – | – | – | – | – | 5.8 | 0.072
MDX10D1H-G1m/MDX10D1L-k0MT (antibody) | – | – | – | – | – | – | – | 0.012
